The results in this text go back to PMC4560160.

Assay [1] has as its target human CCR5 expressed on DHFR-deficient CHO cells (CHO-CCR5) (human) (UniProt P51681).
For assay [2], the target named is CCR5 endogenously expressed on human blood-derived monocytes, monocyte-derived macrophages (MDMs) and T cell blasts (human (endogenous in blood monocytes, MDMs and T cell blasts)) (UniProt P51681).
The target is the same in assay [3]. The source holds these as a separate data set.

Chain of CCL5 (P13501 24-91): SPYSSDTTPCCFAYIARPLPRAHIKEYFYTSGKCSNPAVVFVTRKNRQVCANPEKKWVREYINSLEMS

As to “CCL5 (from UniProt P13501 24-91) (ligand)”, in assay [1], the CCR5 down-modulation: reduction of the specific binding of each anti-CCR5 mAb to the surface of CHO-CCR5 cells after 1 h at 37°C with 100 nM CCL5, flow cytometry worked out at 50%.
“PSC-RANTES: Nα(n-nonanoyl)-des-Ser(1)-[L-thioprolyl(2), L-cyclohexylglycyl(3)]-RANTES(4-68) (from UniProt P13501 27-91) (ligand)” registered a CCR5 down-modulation on monocytes after overnight culture with 100 nM analog: reduction of the surface binding signal of MC5, 2D7 and CTC5, flow cytometry in assay [2] of 50%. In assay [3], this substance gave a CCR5 down-modulation on MDMs after overnight exposure to 100 nM ligand, detected with CTC5, flow cytometry of over 50%.
With “amino-oxypentane (AOP)-RANTES (from UniProt P13501 24-91) (ligand)”, the CCR5 down-modulation on monocytes after overnight culture with 100 nM analog: reduction of the surface binding signal of MC5, 2D7 and CTC5, flow cytometry in assay [2] is 50%. In assay [3], this substance gave a CCR5 down-modulation on MDMs after overnight exposure to 100 nM ligand, detected with CTC5, flow cytometry of over 50%.
